Reference: patent publication US20230330143A1 (GAMMADELTA THERAPEUTICS, published 2023)

target: Vδ1 chain-containing γδ TCR on γδ T cells; experiment: cell-based or functional assay

Row | Binder | T cell degranulation (EC50 µg/ml - 3 donors) | Killing assay (EC50 µg/ml - 2 or 3 donors)
1 | 1139_P01_E04 (antibody, V domains shown) VH: QVQLQQSGPGLVKPSQTLSLTCAISGDSVSSNSAAWNWIRQSPSRGLEWLGRTYYRSKWYNDYAVSVRSRITINPDTSKNQFSLQLNSVTPEDTAVYYCARSWNDAFDIWGQGTTVTVSS VL: DIVMTQSPSTLSASIGDRVTITCRAGQSISTWLAWYQQKPGKAPKLLIYDASSLESGVPLRFSGSGSGTDFTLTISSLQPEDFATYYCQQSYSTPLTFGGGTKVEIK | 0.005 µg/mL | –
2 | 1245_P01_E07 (antibody, V domains shown) VH: QVQLVESGGGLVKPGGSLRLSCAASGFTFSDYYMSWIRQAPGKGLEWVSYISSSGSTIYYADSVKGRFTISRDNAKNSLYLQMNSLRAEDTAVYYCARVDYADAFDIWGQGTLVTVSS VL: DIQMTQSPSSLSASVGDRVTIACRAGQSIGTYLNWYQQKPGKAPKLLIYVASSLQSGVPSRFSGSGSGTEFTLTISSLQPEDFATYYCQQSYSTLLTFGRGTKVEIK | – | 0.06 µg/mL
3 | 1252_P01_C08 (antibody, V domains shown, Anti-Vδ1 antibody with a lambda light chain) VH: EVQLLESGGGLVQPGRSLRLSCAASGFTVSSNYMSWVRQAPGKGLEWVSVIYSGGSTYYADSVKGRFTISRDNSKNTLYLQMNSLRAEDTAVYYCASPIELGAFDIWGQGTLVTVSS VL: SSYELTQPPSVSVAPGKTARITCGGNNIGSQSVHWYQQKPGQAPMLVIYYDSDRPSGIPERFSGSNSGNTATLTISRVEAGDEADYYCQVWDSSSDHVVFGGGTKLTVL | – | 0.02 µg/mL

More lines, main results first:

Row | T cell degranulation (EC50 µg/ml - 3 donors) | Binder | Killing assay (EC50 µg/ml - 2 or 3 donors)
4 | 0.001 µg/mL | 1245_P01_G09 (antibody, V domains shown) VH: QVQLQQSGPGLVKPSQTLSLTCAISGDSVSSNSAAWNWIRQSPSRGLEWLGRTYYGSKWYNEYALSVKSRIIINPDTSKNQFSLQLNSVTPEDTAVYYCARDYYYSMDVWGQGTLVTVSS VL: DIVMTQSPSTLSASIGDRVTITCRAGQSISTWLAWYQQKPGKAPKLLIYDASSLESGVPLRFSGSGSGTEFTLAISSLQPDDFATYYCQQSYSTPVTFGQGTKVEIK | –
5 | 0.002 µg/mL | 1245_P02_G04 (antibody, V domains shown) VH: QVQLQQSGPGLVKPSQTLSLTCAISGDSVSSKSAAWNWIRQSPSRGLEWLGRTYYRSKWSTDYAASVKSRITINPDTSKNQLSLQLNSVTPEDTAVYYCARTWSGYVDVWGQGTLVTVSS VL: DIQMTQSPPALSASVGDRVTITCRASQDINDWLAWYQHKPGKAPKLLIYDASSLESGVPSRFSGSGSGTEFTLTISSLQPDDFATYYCQQSYSTPQVTFGQGTRLEIK | 0.1 µg/mL
6 | 0.001 µg/mL | 1245_P01_G06 (antibody, V domains shown) VH: QVQLVESGGGLVKPGGSLRLSCAASGFTFSDYYMSWIRQAPGKGLEWVSYISSSGSTIYYADSVKGRFTISRDNAKNSLYLQMNSLRAEDTAVYYCARHSWNDAFDVWGQGTLVTVSS VL: not shown | –
